Reference: patent publication US20210363269A1 (ALX ONCOLOGY, published 2021)
Numbering of substitutions follows the chain as printed.

T1: cynomolgus SIRP-α (cynomolgus monkey, UniProt Q5TFQ8 30-148 (human entry), limits assumed)
T1 construct: also called cyno1
T1 chain: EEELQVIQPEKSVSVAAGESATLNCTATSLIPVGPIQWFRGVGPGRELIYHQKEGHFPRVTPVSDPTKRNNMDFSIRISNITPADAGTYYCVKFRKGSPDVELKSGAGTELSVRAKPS

T2: mouse 129 SIRP-α (mouse (129 strain), UniProt P97797 32-150)
T2 construct: also called m129
T2 chain: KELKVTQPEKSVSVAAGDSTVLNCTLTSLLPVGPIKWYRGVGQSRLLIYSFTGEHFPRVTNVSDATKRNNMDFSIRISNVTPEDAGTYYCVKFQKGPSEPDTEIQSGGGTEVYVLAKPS

T3: C57BL/6 mouse SIRP-α D1 domain (mouse (C57BL/6 strain), UniProt P97797 32-148)
T3 sequence: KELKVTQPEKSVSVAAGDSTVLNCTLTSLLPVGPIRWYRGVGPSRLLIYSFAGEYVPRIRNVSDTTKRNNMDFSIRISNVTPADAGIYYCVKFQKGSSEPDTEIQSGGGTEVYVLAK

T4: BALBc mouse SIRP-α (mouse (BALB/c strain))
T4 chain: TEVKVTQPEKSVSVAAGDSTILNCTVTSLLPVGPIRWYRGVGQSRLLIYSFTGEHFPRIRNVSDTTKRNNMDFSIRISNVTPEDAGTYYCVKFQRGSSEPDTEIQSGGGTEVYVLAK

T5: cynomolgus SIRP-α D1 domain (cyno1) (cynomolgus monkey, UniProt Q5TFQ8 30-148 (human entry), limits assumed)
T5 chain: T1 chain

B1: antibody 25 (antibody, V domains shown)
VH: DVQLVESGGGVVRPGESLRLSCEASGFTFSSNAMSWVRQAPGKGLEWVAGISSGSDTYYGDSVKGRLTISRDNSKNILYLQMNSLTAEDTAVYYCARETWNHLFDYWGLGTLVTVSS
VL: ALTQPASVSANPGETVEITCSGGSYSSYYYAWYQQKSPGSAPVTLIYSDDKRPSNIPSRFSGSASGSTATLTITGVRAEDEAVYFCGGYDQSSYTNPFGAGTTLTVL
notes: also called AB25; S25
B2: antibody 21 (antibody, V domains shown)
VH: DVQLVESGGGVVRPGESLRLSCAASGFTFSSNAMSWVRQAPGKGLEWLAGISAGGSDTYYPASVKGRFTISRDNSKNTLYLQMNTLTAEDTAVYYCARETWNHLFDYWGLGTLVTVSS
VL: ALTQPASVSANPGETVKIACSGGDYYSYYYGWYQQKAPGSALVTVIYSDDKRPSDIPSRFSGSASGSTATLTITGVRAEDEAVYYCGGYDYSTYANAFGAGTTLTVL
notes: also called AB21; S21
B3: antibody 137 (antibody, V domains shown)
VH: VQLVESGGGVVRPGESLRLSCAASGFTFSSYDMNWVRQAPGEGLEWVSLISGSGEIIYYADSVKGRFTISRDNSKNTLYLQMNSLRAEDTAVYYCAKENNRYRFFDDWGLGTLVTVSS
VL: ETVLTQSPGTLTLSPGERATLTCRASQSVYTYLAWYQEKPGQAPRLLIYGASSRATGIPDRFSGSGSGTVFTLTISSLQSEDFAVYYCQQYYDRPPLTFGGGTKVEIK
notes: also called S137
B4: antibody 66 (antibody, V domains shown)
VH: B2 VH with N32Y, P61I, A62D, S75P, T78S, N84S, T85S
VL: ALTQPASVSANPGETVKITCSGGDYYSTYYAWYQQKSPGSAPVTVIHSDDKRPSDIPSRFSGSASGSAATLIITGVRVEDEAVYYCGGYDGRTYINTFGAGTTLTVL
notes: also called AB66; S66
B5: antibody 27 (antibody, V domains shown)
VH: DVQLVESGGGVVRPGESLRLSCAVSGFRFSSYAMSWVRQAPGKGLEWVSGISSGGDTYYVDSVKGRFTISRDNSKNTLYLQVNSLTAEDTAIYYCARETWNHLFDYWGLGTLVTVSS
VL: ALTQPASVSADLGETVKITCSGGDSSSHYYGWYQQKSPGSAPVTVIYSDDERPSDIPSRFSGSASGSTATLTITGVRVEDEAIYYCGAYDGSTYANTFGAGTTLTVL
notes: also called AB27; S27
B6: antibody 45 (antibody, V domains shown)
VH: AVTLDESGGGLQTPGGALSLVCKASGFTFSSYAMGWVRQAPGKGLEWVAGIDDDGSTANYGPAVKGRATISRDNGQSTVRLQLNNPRAEDSGTYFCAKASVTGWSAHISGRLDTWGHGTEVIVSS
VL: ALTQPASVSANPGETVKITCSGGGIYYYGWYQQKSPGSAPVTLIYENDKRPSDIPSRFSGSTSGSTNTFTITGVQAEDEAVYYCGGYDSNTTSGIFGAGTTLTVL
notes: also called S45; AB45
B7: S218 (scFv, V domains shown)
VH: DVQLVESGGGVVRPGESLTLSCTASGFTFTSSTMNWVRQAPGEGLDWVSSISTSGVITYYADSVKGRATISRDNSKNTLYLRLFSLRADDTAIYYCATDTFDHWGPGTLVTVSS
VL: ALTQPASVSANPGETVKITCFGSSGNYGWFQQKSPGSAPVTVIHYNNKRPSDIPSRFSGSKSGSTGTLTITGVRAEDEAVYFCGAWETGSATFGAGTTLTVL
notes: scFv-Fc format (VL-linker-VH on human IgG1 Fc)
B8: Hum1/AB21_HC_wt (antibody, V domains shown)
VH: B2 VH
VL: SYELTQPPSVSVSPGQTARITCSGGSYSSYYYAWYQQKPGQAPVTLIYSDDKRPSNIPERFSGSSSGTTVTLTISGVQAEDEADYYCGGYDQSSYTNPFGGGTKLTVL
B9: Hum3/AB66_HC_wt (antibody, V domains shown)
VH: B2 VH with N32Y, P61I, A62D, S75P, T78S, N84S, T85S
VL: SYELTQPPSVSVSPGQTARITCSGGDYYSTYYAWYQQKPGQAPVTVIHSDDKRPSDIPERFSGSSSGTTVTLTISGVQAEDEADYYCGGYDGRTYINTFGGGTKLTVL
B10: Hum1/AB25_HC_wt (antibody, V domains shown)
VH: B1 VH
VL: B8 VL
B11: Hum1/AB27_HC_wt (antibody, V domains shown)
VH: B5 VH
VL: B8 VL
B12: Hum3/AB25_HC_wt (antibody, V domains shown)
VH: B1 VH
VL: B9 VL
B13: Hum1/AB66_HC_wt (antibody, V domains shown)
VH: B2 VH with N32Y, P61I, A62D, S75P, T78S, N84S, T85S
VL: B8 VL
B14: Hum3/AB21_HC_wt (antibody, V domains shown)
VH: B2 VH
VL: B9 VL
B15: Hum3/AB27_HC_wt (antibody, V domains shown)
VH: B5 VH
VL: B9 VL

Molecular target: T6, human SIRP-α v2 (human)
T6 construct: also called Human v2; Human V2
T6 sequence (chain, as listed by the source limits assumed): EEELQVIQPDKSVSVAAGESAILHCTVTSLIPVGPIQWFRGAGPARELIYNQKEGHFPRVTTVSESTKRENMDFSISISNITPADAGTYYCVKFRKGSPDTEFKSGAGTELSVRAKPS
Assay: SPR
Outline: (§1)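 SIRP analytes at nominal, A280-based concentrations were injected in one-shot kinetic mode over purified antibodies that were amine-coupled to a GLC chip or captured by biotinylated Protein A on an NLC chip of a ProteOn XPR36. All runs were at 25° C in PBS pH 7.4 with 0.01% Tween-20. Apparent ka and kd came from a global simple Langmuir fit of double-referenced data, with KD as their ratio kd/ka.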

Kd [nM]	Binder
< 0.001	B1
< 0.001	B2
3.14	B3

Molecular target: T7, human SIRP-α v1 (human, UniProt P78324 31-149)
T7 construct: also called Human v1; Human V1
T7 sequence (P78324 31-149 limits assumed): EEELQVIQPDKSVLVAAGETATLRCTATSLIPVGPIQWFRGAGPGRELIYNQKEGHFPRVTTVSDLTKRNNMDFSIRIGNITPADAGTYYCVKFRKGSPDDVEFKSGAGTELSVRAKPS
Assay: SPR
Outline: as §1

Kd [nM]	Binder
< 0.001	B1
< 0.001	B4
< 0.001	B2
0.774	B3
0.0215	B5

Molecular target: T1, cynomolgus SIRP-α
Assay: SPR Koff +/-
Outline: as §1

binding result	Binder
no binding	B6
binds	B3

Molecular target: T8, human SIRPβ isoform 1 (human, UniProt O00241 30-148)
T8 construct: also called Beta; Human SIRPb
T8 sequence (O00241 30-148 limits assumed): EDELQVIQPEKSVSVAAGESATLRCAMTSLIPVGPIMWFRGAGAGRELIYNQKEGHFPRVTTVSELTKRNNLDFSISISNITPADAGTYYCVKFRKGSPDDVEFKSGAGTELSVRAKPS
Assay: SPR Koff +/-
Outline: as §1

binding result	Binder
binds	B3

Molecular target: T2, mouse 129 SIRP-α
Assay: SPR Koff +/-
Outline: as §1

binding result	Binder
binds	B3

Molecular target: T3, C57BL/6 mouse SIRP-α D1 domain
Assay: SPR
Outline: (§2)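 Dissociation rate constants (koff) were measured on a ProteOn XPR36 instrument by Langmuir model fitting. Antibody clones in scFv-Fc format were captured from pre-filtered culture media onto a GLC chip with about 4000 RU of amine-coupled anti-human IgG Fc. SIRP analytes ran in PBS pH 7.4 with 0.01% Tween-20 at 25° C, and the model used was 1:1, applied to data double-referenced against interspot and buffer-blank responses.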

Binder	binding result
B7	no binding (tested: Koff > 5 × 10^3 (legend))

Molecular target: T1, cynomolgus SIRP-α
Assay: SPR
Outline: as §1

koff [s⁻¹]	Binder
0.000394	B1
0.000395	B8
0.000306	B9
0.00033	B10
0.00269	B4
0.000379	B11
0.000375	B12
0.000303	B13
0.00229	B2
0.000432	B14
0.000464	B15
0.000683	B5

Molecular target: T6, human SIRP-α v2
Assay: SPR
Remark: another data set of the same source
Outline: as §1

koff [s⁻¹]	Binder
0.000353	B1
0.000303	B8
0.000287	B9
0.000267	B10
0.00281	B4
0.000292	B11
0.000353	B12
0.000239	B13
0.00192	B2
0.000438	B14
0.000396	B15
0.000579	B5

Molecular target: T4, BALBc mouse SIRP-α
Assay: SPR
Outline: as §1

koff [s⁻¹]	Binder
0.00178	B1
0.00291	B8
0.00205	B9
0.00374	B10
0.00346	B4
0.0037	B11
0.000227	B12
0.00246	B13
0.00241	B2
0.00231	B14
0.000202	B15
0.005	B5

Molecular target: T7, human SIRP-α v1
Assay: SPR
Remark: another data set of the same source
Outline: as §1

koff [s⁻¹]	Binder
0.000165	B1
0.000193	B8
0.000124	B9
0.000133	B10
0.000949	B4
0.000192	B11
5.94e-05	B12
0.000124	B13
0.000707	B2
0.000137	B14
0.000216	B15
0.000315	B5

Molecular target: T9, human SIRPγ isoform 1 (human, UniProt Q9P1W8 29-147)
T9 construct: also called Gamma; Human SIRPg
Assay: SPR
Outline: as §1
T9 sequence (Q9P1W8 29-147 limits assumed): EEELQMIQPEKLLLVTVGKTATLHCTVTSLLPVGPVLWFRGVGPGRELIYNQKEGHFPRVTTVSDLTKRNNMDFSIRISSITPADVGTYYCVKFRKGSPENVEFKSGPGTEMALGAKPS

koff [s⁻¹]	Binder
0.000203	B1
0.000188	B8
0.000135	B9
0.000203	B10
0.000997	B4
0.000178	B11
0.000169	B12
0.000136	B13
0.000902	B2
0.00021	B14
0.000207	B15
0.000407	B5

Molecular target: T10, human SIRPγ isoform 1 (human, UniProt Q9P1W8 29-147)
T10 construct: also called SIRPg; sirpg
Assay: SPR, Langmuir fit
Outline: as §2
T10 sequence (Q9P1W8 29-147 limits assumed): as above

koff [s⁻¹]	Binder
2.12e-05	B7

Molecular target: T5, cynomolgus SIRP-α D1 domain (cyno1)
Assay: SPR, Langmuir fit
Outline: as §2

koff [s⁻¹]	Binder
2.49e-05	B7

Molecular target: T11, human SIRP-α v1 D1 domain (human, UniProt P78324 31-149)
T11 construct: also called human v1
T11 sequence (P78324 31-149 limits assumed): as the sequence (P78324 31-149 limits assumed) above
Assay: SPR, Langmuir fit
Outline: as §2

koff [s⁻¹]	Binder
7.06e-05	B7

Molecular target: T12, human SIRP-α v2 D1 domain (human)
T12 construct: also called human v2
T12 sequence (chain, as listed by the source limits assumed): as the sequence (chain, as listed by the source limits assumed) above
Assay: SPR, Langmuir fit
Outline: as §2

koff [s⁻¹]	Binder
5.47e-05	B7
